Test results from PMC1925066, “Optical biosensor differentiates signaling of endogenous PAR1 and PAR2 in A431 cells” (BMC Cell Biology, 2007).

Assays:
[1] = system: endogenous PAR1 and PAR2 in A431 cells; assay: Fluo-3 Ca2+ mobilization (Ca2+ flux) assay in quiescent A431 cells; type: cell-based, human
Method: (§1) Human epidermoid carcinoma A431 cells ([…]) were grown in Dulbecco's modified Eagle's medium (DMEM) supplemented with 10% fetal bovine serum (FBS), 4.5 g/liter glucose, 2 mM glutamine, and antibiotics. ~5 × 10^4 cells at passage 3 to 8 suspended in 200 μl the DMEM medium containing 10% FBS were placed in each well of a 96well microplate, and were cultured at 37°C under air/5% CO2 for ~2 days, followed by ~20 hr starvation through continuously culturing in the serum-free DMEM.
Cells were grown in Costar™ 96well clear cell culture microplates. After starvation, the cells were washed with 1× HBSS (1× regular Hank's balanced salt solution, 20 mM HEPES buffer, pH 7.0) in the presence of 2.5 mM probenicid, and labeled in the same buffer containing 4 μM Fluo-3 for 1 hour at room temperature. The cells were then washed twice with buffer, maintained with 100 μl 1× HBSS containing 2.5 mM probenicid. The assay was initiated by transferring 50 μl PAR agonist solution to the cell plate, and calcium signal was recorded over 6 minutes with a 6 sec interval using HTS7000 BioAssay Reader (PerkinElmer Life Science, Boston, MA). The fluorescent intensity before stimulation was recorded and used as a baseline. The percentage increase in fluorescence intensity after stimulation, relative to the baseline fluorescence, was analyzed and used directly as a measure for the increase of intracellular Ca^2+ level induced by PAR agonists.
(§2) Unless specifically mentioned, three replicates were carried out for each measurement or each compound. The standard deviation was derived from these measurements (n = 3). […] All dose-dependent responses were analyzed using non-linear regression method with the Prism software (Graph Pad).

[2] = system: endogenous PAR1 and PAR2 in A431 cells; assay: MRCAT resonant waveguide grating biosensor DMR assay in quiescent A431 cells; type: cell-based, human; conditions: for EC50: A431 cells
Method: as §1
Corning® Epic™ angular interrogation system with transverse magnetic or p-polarized TM0 mode was used for all studies. The detailed instrumental setup and assay protocols had been previously described. Briefly, all compound solutions were prepared using 1 × HBSS containing minimal amount of dimethyl sulfoxide, while the starved cells were washed and maintained with 100 μl the serum-free DMEM. The cells were then treated with 50 μl 1 × HBSS buffered solution in the absence and presence of a compound, followed by stimulation with ligand solutions. The cellular responses were monitored in real time throughout the assays.
as §2

A431 cells = system: A431 cells; parameters: method as in PMID 16766609; conditions: doses greater than ~1000 nM; cited from earlier work

EC50 ([1]; A431 cells, read-out: EC50 (n = 3) Ca^2+ flux assay): 45.7 ± 5.8 nM
EC50 ([2]; amplitude of N-DMR event, read-out: EC50 (n = 3) N-DMR): 102 ± 21.9 nM
EC50 ([2]; amplitude of P-DMR event, read-out: EC50 (n = 3) P-DMR): 98 ± 27.8 nM
B1: Trypsin: serine protease, PAR2 agonist, purchased from Sigma (protein, UniProt P00760 24-246, looked up)
Serine protease 1: IVGGYTCGANTVPYQVSLNSGYHFCGGSLINSQWVVSAAHCYKSGIQVRLGEDNINVVEGNEQFISASKSIVHPSYNSNTLNNDIMLIKLKSAASLNSRVASISLPTSCASAGTQCLISGWGNTKSSGTSYPDVLKCLKAPILSDSSCKSAYPGQITSNMFCAGYLEGGKDSCQGDSGGPVVCSGKLQGIVSWGSGCAQKNKPGVYTKVCNYVSWIKQTIASN
maximal [Ca^2+]i elevation ([1]; A431 cells, SFLLR-amide at 80 μM): 100 ± 6%
responsiveness (Ca^2+ mobilization) after pre-stimulation with thrombin ([1]; thrombin 40 unit/ml first, separated by 6 min): only partially
Ca^2+ mobilization response after pre-stimulation with trypsin ([1]; trypsin 200 nM first, repeated stimulation separated by 6 min): completely blocked
desensitization of trypsin-treated cells (DMR signal) ([2]; trypsin 200 nM first, repeated stimulation separated by ~1 hr): completely desensitized
cell detachment (A431 cells): significant cell detachment
